Among the data in paper PMC5025653 are stoichiometry N values, retold here.

For this assay, the target named is C-terminal region of IbOr (IbOr-C), recombinant (sweetpotato (Ipomoea batatas)). The assay is described as follows: native gel or EMSA; 10% native PAGE gel, silver-stained; recombinant IbOr and truncated fragments. (Mobility shift assays separate free from complexed probe on a gel.)

On to “C-terminal region of IbOr (IbOr-C), recombinant (domain or fragment)”, for which the stoichiometry N stood at 3.

By stoichiometry N is commonly meant a count of units in the complex or per binding partner.
